Reference: patent US20230416363A1 (KADMON, published 2023)
Substitutions are numbered along the chain they refer to. Like-named read-outs stand apart in the source and are kept apart here.

Key:
[1] = molecular target: T1, hPD-1-Fc (human, UniProt Q15116 25-167); test: ELISA, hPD-1-Fc coated
T1 construct: domain: IgV domain; also called human PD-1-Fc; not shown: human IgG1 Fc

[2] = molecular target: T2, hPD-1-his (human, UniProt Q15116 25-167); test: ELISA, captured hPD-1-his
T2 construct: domain: IgV domain; monomer in solution; biotin-labelled where captured by streptavidin; also called biotin-hPD-1-his
T2 sequence (Q15116 other isoform, or with tags, fused parts or gaps limits assumed): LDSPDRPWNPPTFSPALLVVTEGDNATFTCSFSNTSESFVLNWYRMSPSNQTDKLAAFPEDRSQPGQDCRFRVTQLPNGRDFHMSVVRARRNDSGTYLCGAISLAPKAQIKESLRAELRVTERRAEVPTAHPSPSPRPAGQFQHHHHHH

[3] = molecular target: T3, human PD-1 expressed on cells (human, UniProt Q15116 25-288); test: flow cytometry, hPD1-293 cells
T3 construct: whole, on cells
T3 sequence (Q15116 25-288): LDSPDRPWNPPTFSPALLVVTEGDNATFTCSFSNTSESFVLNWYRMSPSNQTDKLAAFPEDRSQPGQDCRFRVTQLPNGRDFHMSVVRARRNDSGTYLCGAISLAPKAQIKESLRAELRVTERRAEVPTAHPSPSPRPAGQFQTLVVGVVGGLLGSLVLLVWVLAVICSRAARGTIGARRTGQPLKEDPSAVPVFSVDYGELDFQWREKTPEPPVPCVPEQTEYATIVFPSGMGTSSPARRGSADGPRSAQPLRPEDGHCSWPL

[4] = molecular target: T1, hPD-1-Fc; test: blocking ELISA, hPD-1-Fc to hPD-L1-Fc
[5] = molecular target: T3, human PD-1 expressed on cells; test: flow cytometry, SEB-activated PBMC donor three
[6] = molecular target: T3, human PD-1 expressed on cells; test: flow cytometry, SEB-activated PBMC donor one
[7] = molecular target: T1, hPD-1-Fc; test: ELISA, hPD-1-Fc coated; remark: listed apart in the source
[8] = molecular target: T2, hPD-1-his; test: ELISA, PD-1-his on anti-his
[9] = molecular target: T2, hPD-1-his; test: ELISA, PD-1-his on streptavidin
[10] = molecular target: T1, hPD-1-Fc; test: blocking ELISA, hPD-1 to hPD-L1; parameters: unit not given here
[11] = molecular target: T1, hPD-1-Fc; test: SPR Biacore T200, PD-1-Fc immobilised
[12] = molecular target: T2, hPD-1-his; test: SPR Biacore T200, PD-1-his immobilised
[13] = molecular target: T3, human PD-1 expressed on cells; test: cell-based or functional assay
[14] = molecular target: T1, hPD-1-Fc; test: ELISA, hPD1-Fc coated
[15] = molecular target: T2, hPD-1-his; test: ELISA, hPD-1-his on anti-his
[16] = molecular target: T1, hPD-1-Fc; test: blocking ELISA, hPD-1-Fc to hPD-L1-Fc; remark: listed apart in the source
[17] = molecular target: T2, hPD-1-his; test: ELISA, biotin-hPD-1-his on streptavidin

T1 sequence (Q15116 25-167 limits assumed): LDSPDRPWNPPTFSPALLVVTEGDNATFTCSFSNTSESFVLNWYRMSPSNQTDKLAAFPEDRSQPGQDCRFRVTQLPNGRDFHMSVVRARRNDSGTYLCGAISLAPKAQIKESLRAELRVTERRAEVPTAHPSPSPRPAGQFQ

B1: 23A11 (antibody, human IgG1, V domains shown)
VH: QVQLVQSGAEVKKPGSSVKVSCKASGYTFTDYSLHWVRQAPGQGLEWMGEVIPMFDTAYYAQTFQGRVTITADESTSTAYMELSSLRSEDTAVYYCAREPFTMVRGGRYYYYGMDVWGQGTTVTVSS
VL: DIQMTQSPSSLSASVGDRVTITCRASQNINKNLNWYQQKPGKAPKLLIYDASNLQSGVPSRFSGSGSGTDFTLTISSLQPEDFATYYCQHSETFGQGTKVEIK
- EC50 [1]: 0.167 nM
- OD at 10 nM [1]: 2.04 OD450
- EC50 [2]: 1 nM
- OD at 10 nM [2]: 0.27 OD450
- MFI at 68 nM [3]: 21.8 MFI
- IC50 [4]: 2.61 nM
- Inhibition % (3.3 nM) [4]: 54.9%
- Inhibition % (30 nM) [4]: 86.6%
- EC50 [5]: 13.4 nM
- MFI at 100 nM [5]: 46.2 MFI
- EC50 [6]: 19 nM
- MFI at 100 nM [6]: 14.6 MFI

B2: 32A11 (antibody, V domains shown)
VH: EVQLLESGGGLVQPGGSLRLSCAASGFTFSSYWMSWVRQAPGKGLEWVSAISGSGGSTYYADSVKGRFTISRDNSKNTLYLQMNSLRAEDTAVYYCASSPLQWVDVWGQGTTVTVSS
VL: DIQMTQSPSSLSASVGDRVTITCRASESISIWLAWYQQKPGKAPKLLIYDASNLETGVPSRFSGSGSGTNFTLTISSLQPEDFATYYCQQADSFPFTFGPGTKVDIK
- OD at 10 nM [7]: 0.921 OD
- OD at 10 nM [8]: 1.03 OD
- OD at 10 nM [9]: 0.919 OD
- Inhibition at 50 nM [10]: 91.1

B3: 32D2 (antibody, V domains shown)
VH: B2 VH
VL: B2 VL with E27Q, S28G, I31R, D50E, N53T, E55Q, T56S, N70D, D92Y, P100Q
- OD at 10 nM [7]: 0.922 OD
- OD at 10 nM [8]: 0.591 OD
- OD at 10 nM [9]: 0.932 OD
- Inhibition at 50 nM [10]: 91.7

B4: 38A11 (antibody, V domains shown)
VH: B2 VH
VL: B2 VL with E27Q, I31S, N53T, E55Q, T56S, N70D, A91G, D92N
- OD at 10 nM [7]: 1.03 OD
- OD at 10 nM [8]: 0.447 OD
- OD at 10 nM [9]: 1.07 OD
- Inhibition at 50 nM [10]: 93.2
- Kd [11]: 1.02 nM
- Kd [12]: 4.93 nM

B5: 38A10 (antibody, V domains shown)
VH: B2 VH
VL: B2 VL with E27Q, I31T, N53R, E55Q, T56N, N70D, A91G
- OD at 10 nM [7]: 1.06 OD
- OD at 10 nM [8]: 0.552 OD
- OD at 10 nM [9]: 1 OD
- Inhibition at 50 nM [10]: 92.8
- Kd [11]: 0.834 nM
- Kd [12]: 4.82 nM

B6: 39B3 (antibody, V domains shown)
VH: B2 VH
VL: B2 VL with E27Q, S30G, I31P, N70D, D92N
- OD at 10 nM [7]: 1.08 OD
- OD at 10 nM [8]: 0.617 OD
- OD at 10 nM [9]: 0.963 OD
- Inhibition at 50 nM [10]: 92.9

B7: 39G8 (antibody, V domains shown)
VH: B2 VH
VL: B2 VL with E27Q, S28G, I31P, N53K, N70D, D92Y, P100G, D105E
- OD at 10 nM [7]: 1.06 OD
- OD at 10 nM [8]: 0.484 OD
- OD at 10 nM [9]: 0.981 OD
- Inhibition at 50 nM [10]: 93.2
- Kd [11]: 0.794 nM
- Kd [12]: 2.58 nM

B8: 32D11 (antibody, V domains shown)
VH: B2 VH
VL: B2 VL with E27Q, S30N, N70D, A91G, D92Y
- OD at 10 nM [7]: 0.952 OD
- OD at 10 nM [8]: 0.602 OD
- OD at 10 nM [9]: 0.935 OD
- Inhibition at 50 nM [10]: 91.9
- Kd [11]: 0.554 nM
- Kd [12]: 1.44 nM

B9: 39B11 (antibody, V domains shown)
VH: B2 VH
VL: B2 VL with E27Q, I31S, D50E, N53R, E55Q, T56S, N70D, D92N
- OD at 10 nM [7]: 1.08 OD
- OD at 10 nM [8]: 0.482 OD
- OD at 10 nM [9]: 0.99 OD
- Inhibition at 50 nM [10]: 93.3

B10: 38C11 (antibody, V domains shown)
VH: B2 VH
VL: B2 VL with E27Q, I31R, Y49S, N53T, L54V, E55Q, T56S, N70D, D92N
- OD at 10 nM [7]: 1.02 OD
- OD at 10 nM [8]: 0.404 OD
- OD at 10 nM [9]: 1.05 OD
- Inhibition at 50 nM [10]: 92.7

B11: 23A8 (antibody, human IgG1, V domains shown)
VH: EVQLLESGGGLVQPGGSLRLSCAASGFTFSSSAMHWVRQAPGKGLEWVSGISGSGSSTYYADSVKGRFTISRDNSKNTLYLQMNSLRAEDTAVYYCARDNNYYYYMDVWGKGTTVTVSS
VL: DIQMTQSPSSLSASVGDRVTITCRASQSIGTWLAWYQQKPGKAPKLLIYAASTLRSGVPSRFSGSGSGTDFTLTISSLQPEDFATYYCQQSYSTPYTFGQGTKLEIK
- EC50 [1]: 0.135 nM
- OD at 10 nM [1]: 1.74 OD450
- EC 50, Promega PD-1/PD-L1 blockade bioassay [13]: 4.73 µg/mL
- Fold of induction [13]: 2.81 fold
- EC50 [2]: 0.523 nM
- OD at 10 nM [2]: 1.15 OD450
- EC50 [3]: 0.299 nM
- MFI at 68 nM [3]: 105 MFI
- IC50 [4]: 1.85 nM
- Inhibition % (3.3 nM) [4]: 80.5%
- Inhibition % (30 nM) [4]: 93.1%
- EC50 [5]: 1.89 nM
- MFI at 100 nM [5]: 80.3 MFI
- EC50 [6]: 1.51 nM
- MFI at 100 nM [6]: 19.9 MFI

B12: 19B10 (antibody, human IgG1, V domains shown)
VH: EVQLLESGGGLVQPGGSLRLSCAASGFTFSSYAMHWVRQAPGKGLEWVSGISNSGGNTYYADSVKGRFTISRDNSKNTLYLQMNSLRAEDTAVYYCARDNYYYYMDVWGKGTTVTVSS
VL: B11 VL with I29V, G30S, T53N, R55E, S56T, S91T
- EC50 [1]: 0.188 nM
- OD at 10 nM [1]: 1.73 OD450
- EC50 [2]: 5.34 nM
- OD at 10 nM [2]: 0.38 OD450
- EC50 [3]: 16 nM
- MFI at 68 nM [3]: 45.1 MFI
- IC50 [4]: 28.1 nM
- Inhibition % (3.3 nM) [4]: 22.9%
- Inhibition % (30 nM) [4]: 65.2%
- EC50 [5]: 104 nM
- MFI at 100 nM [5]: 25.2 MFI
- EC50 [6]: 117 nM
- MFI at 100 nM [6]: 12.4 MFI

B13: 33G8 (antibody, V domains shown)
VH: QVQLVQSGAEVKKPGSSVKVSCKASGGTFSSSVISWVRQAPGQGLEWMGGIIPIFGTANYAQKFQGRVTITADESTSTAYMELSSLRSEDTAVYYCAREGLGCSGGSCYSGYYYGMDVWGQGTTVTVSS
VL: DIVMTQSPLSLPVTPGEPASISCRSSQSLLHSNGYNYLDWYLQKPGQSPQLLIYQASTLGSGVPDRFSGSGSGTDFTLKISRVEAEDVGVYYCMQGTHWPYTFGQGTKLEIK
- EC50 [14]: 0.113 nM
- OD450 at 10 nM [14]: 0.9 OD450
- EC50 [15]: 0.149 nM
- OD450 at 10 nM [15]: 0.487 OD450
- IC50 [16]: 1.81 nM
- Inhibition % at 5.6 nM [16]: 89.9%
- Inhibition % at 50 nM [16]: 90.5%
- EC50 [17]: 0.197 nM
- OD450 at 10 nM [17]: 0.909 OD450

B14: 34C1 (antibody, V domains shown)
VH: B13 VH
VL: DIVMTQSPLSLPVTPGEPASISCRSSESLLYSNGNTYLDWYLQKPGQSPQLLIYEVSNRASGVPDRFSGSGSGTDFTLKISRVEAEDVGVYYCMQGTRWPYTFGQGTKVEIK
- EC50 [14]: 0.147 nM
- OD450 at 10 nM [14]: 0.926 OD450
- EC50 [15]: 0.0866 nM
- OD450 at 10 nM [15]: 0.521 OD450
- IC50 [16]: 2.01 nM
- Inhibition % at 5.6 nM [16]: 89.1%
- Inhibition % at 50 nM [16]: 89.3%
- EC50 [17]: 0.233 nM
- OD450 at 10 nM [17]: 0.945 OD450
